Literature values as cited in patent US11207384B2, “Rapid-acting insulin compositions” (Eli Lilly and Company, priority 2017, dated 2021).

How the values were obtained:
[1] = for time until maximum circulating insulin concentration is reached: following the injection
[2] = molecular target: T1, insulin receptor (Homo sapiens, UniProt P06213); settings: insulin receptor binding in cultured lymphocytes, human placenta and human liver, glucose transport in adipocytes
T1 construct: host or cells: cultured lymphocytes, human placenta, human liver

[3] = on a molar basis

| Substance | time until maximum circulating insulin concentration is reached [1] | equivalence to insulin in in vitro tests (in words) [2] | potency relative to human insulin (in words) [3] | kinetics compared to human insulin (in words) ([1]; Tmax, half-life, Cmax) | effect after subcutaneous injection compared with soluble human insulin (in words) ([1]; subcutaneous injection) |
| --- | --- | --- | --- | --- | --- |
| insulin aspart | 50 to 90 min |  |  |  |  |
| insulin glulisine | 50 to 90 min |  |  |  |  |
| insulin lispro | 50 to 90 min | biologically equivalent to insulin | equipotent to human insulin on a molar basis | shorter Tmax and half-life and with a higher Cmax | more rapid and of shorter duration than that of injected soluble human insulin |
